This note sets out measurements from patent publication US20170362317A1.

In the test the target is IL6 receptor on human multiple myeloma U266 cells (human) (UniProt P08887). The test is described as follows: cell-based or functional assay.
Chain of IL6 receptor on human multiple myeloma U266 cells (human) (P08887 20-468): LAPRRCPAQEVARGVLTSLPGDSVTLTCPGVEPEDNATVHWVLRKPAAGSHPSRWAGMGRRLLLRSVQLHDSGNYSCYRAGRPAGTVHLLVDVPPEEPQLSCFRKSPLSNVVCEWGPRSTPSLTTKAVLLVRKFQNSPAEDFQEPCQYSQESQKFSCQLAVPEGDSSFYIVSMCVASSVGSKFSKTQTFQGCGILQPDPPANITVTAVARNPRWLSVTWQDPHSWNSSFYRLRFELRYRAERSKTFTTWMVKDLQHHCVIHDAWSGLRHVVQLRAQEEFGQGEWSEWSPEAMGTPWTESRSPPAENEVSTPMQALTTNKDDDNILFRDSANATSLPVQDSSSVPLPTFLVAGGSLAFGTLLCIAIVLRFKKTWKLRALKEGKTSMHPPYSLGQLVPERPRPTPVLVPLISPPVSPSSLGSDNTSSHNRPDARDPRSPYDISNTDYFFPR

For the substance “Actemra, an anti-IL6 receptor humanized antibody”, the inhibition percentage of control of STAT3 phosphorylation in U266 cells, antibody at 0.05 µg/ml is 0% and the inhibition percentage of control of STAT3 phosphorylation in U266 cells, antibody at 0.5 µg/ml was determined as 17%.
